Two molecules from patent publication US20250361314A1 (SHANGHAI HUAOTA BIOPHARMACEUTICAL, published 2025) can be followed below.

One experiment has as its target T1, Cynomolgus CD39 antigen (cynomolgus, UniProt A0A7N9DGH8 38-478).
T1 construct: Antigen used as analyte in SPR
T1 sequence: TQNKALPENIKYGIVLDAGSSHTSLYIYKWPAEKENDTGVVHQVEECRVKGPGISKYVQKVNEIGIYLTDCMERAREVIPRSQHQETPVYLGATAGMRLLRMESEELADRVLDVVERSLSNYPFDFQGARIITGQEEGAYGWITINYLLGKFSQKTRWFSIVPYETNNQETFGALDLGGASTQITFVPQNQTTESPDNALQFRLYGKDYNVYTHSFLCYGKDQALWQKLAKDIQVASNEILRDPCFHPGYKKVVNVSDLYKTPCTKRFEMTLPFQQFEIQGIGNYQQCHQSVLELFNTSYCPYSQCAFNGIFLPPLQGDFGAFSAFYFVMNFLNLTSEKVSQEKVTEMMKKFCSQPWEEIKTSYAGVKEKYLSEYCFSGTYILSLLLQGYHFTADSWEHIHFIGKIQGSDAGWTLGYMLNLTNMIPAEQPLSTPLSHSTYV
Description: SPR (Biacore 8K), species cross test, antibody captured on anti-human capture CM5 chip, antigen as analyte, 1:1 model. As to the method:
(§1) The experimental method is as follows:
(§2) An Anti-Human Capture-CM5 chip (GE, #BR-1005-30) was prepared using coupling methods of a Human Antibody Capture Kit (GE, #BR-1008-39) and an amino coupling kit (GE, BR-1000-50). The chip was equilibrated at room temperature for about 20-30 min and loaded into a Biacore 8K instrument. The antigen and antibody were diluted to an experimental working concentration using an equilibration buffer. The antigen was diluted with an equilibrium buffer to 50 nM, and then diluted three-fold for seven concentration gradients, and two zero concentrations (i.e., the equilibrium buffer) and one repeat concentration (typically the lowest concentration repeat) were set. Experimental analysis was performed on 10 antigen concentrations (2 zero concentrations, 7 gradient concentrations, and 1 repeated concentration) in a cyclic manner according to an order of antibody, antigen, and regeneration. The antigen injection flow rate was 30 μL/min, the binding time was 120 s, and the dissociation time was 600 s. Following the analysis, the data was analyzed using the corresponding analysis program to confirm that there was no obvious reference binding. Using Kinetics and a 1:1 binding model, the data was fit to obtain the kinetic related parameters Ka, Kd, and KD values of the bispecific antibodies.

In a further experiment the target is T2, Human CD39 antigen (human, UniProt P49961 38-478).
T2 construct: Antigen used as analyte in SPR; also called ENTPD1
T2 sequence (looked up): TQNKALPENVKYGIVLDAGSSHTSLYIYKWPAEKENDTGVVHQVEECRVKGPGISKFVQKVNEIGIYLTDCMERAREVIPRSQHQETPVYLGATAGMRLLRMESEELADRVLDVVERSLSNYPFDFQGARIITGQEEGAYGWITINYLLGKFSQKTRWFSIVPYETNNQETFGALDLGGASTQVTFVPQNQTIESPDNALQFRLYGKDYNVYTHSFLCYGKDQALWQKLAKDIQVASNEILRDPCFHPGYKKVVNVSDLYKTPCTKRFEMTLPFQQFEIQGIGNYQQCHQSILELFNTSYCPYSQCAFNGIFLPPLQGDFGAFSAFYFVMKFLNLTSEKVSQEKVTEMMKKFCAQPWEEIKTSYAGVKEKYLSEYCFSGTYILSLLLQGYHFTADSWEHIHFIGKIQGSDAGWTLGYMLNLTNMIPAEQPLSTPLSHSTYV
The description is as above. As for the experimental part: as §1, §2

For another experiment, the target named is T3, Human CD73 antigen (human, UniProt P21589 27-547, limits assumed).
T3 construct: Antigen used as analyte in SPR; also called NT5E
T3 sequence (looked up): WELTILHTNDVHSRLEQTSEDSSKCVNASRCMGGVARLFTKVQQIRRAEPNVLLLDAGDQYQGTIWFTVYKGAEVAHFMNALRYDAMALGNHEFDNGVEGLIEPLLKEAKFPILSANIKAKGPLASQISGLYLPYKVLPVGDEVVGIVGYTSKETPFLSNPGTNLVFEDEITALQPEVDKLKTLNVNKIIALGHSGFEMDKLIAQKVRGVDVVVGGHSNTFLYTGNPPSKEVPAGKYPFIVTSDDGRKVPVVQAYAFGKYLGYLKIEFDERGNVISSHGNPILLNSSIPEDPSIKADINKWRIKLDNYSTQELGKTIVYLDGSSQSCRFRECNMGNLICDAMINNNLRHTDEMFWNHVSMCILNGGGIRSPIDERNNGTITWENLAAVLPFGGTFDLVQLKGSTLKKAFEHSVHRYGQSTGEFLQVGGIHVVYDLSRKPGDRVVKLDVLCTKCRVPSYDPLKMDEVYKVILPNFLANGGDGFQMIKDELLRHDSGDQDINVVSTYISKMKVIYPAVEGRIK
The experiment is described as above. As to the method: as §1, §2

In experiment [1] the target is T4, Human CD39 on CHOK1-huCD39-10B6 cells overexpressing CD39 (human, UniProt P49961 1-510).
T4 sequence (looked up): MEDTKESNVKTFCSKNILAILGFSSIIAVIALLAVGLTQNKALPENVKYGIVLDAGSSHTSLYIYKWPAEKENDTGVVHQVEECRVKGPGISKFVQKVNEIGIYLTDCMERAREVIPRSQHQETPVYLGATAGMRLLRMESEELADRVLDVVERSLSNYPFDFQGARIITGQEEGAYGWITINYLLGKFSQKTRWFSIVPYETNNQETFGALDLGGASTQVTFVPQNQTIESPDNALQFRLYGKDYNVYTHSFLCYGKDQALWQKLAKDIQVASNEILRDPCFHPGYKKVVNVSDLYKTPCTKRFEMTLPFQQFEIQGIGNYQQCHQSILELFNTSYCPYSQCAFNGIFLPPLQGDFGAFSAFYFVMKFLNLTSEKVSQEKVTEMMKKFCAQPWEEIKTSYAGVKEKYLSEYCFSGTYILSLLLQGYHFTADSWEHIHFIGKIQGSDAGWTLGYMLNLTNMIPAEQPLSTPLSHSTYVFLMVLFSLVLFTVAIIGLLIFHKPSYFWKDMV
Description: cell-based or functional assay.

B1: CD39/CD73 bispecific antibody 700035 (CD39-VHH-CD73-IgG) (bispecific antibody)
heavy: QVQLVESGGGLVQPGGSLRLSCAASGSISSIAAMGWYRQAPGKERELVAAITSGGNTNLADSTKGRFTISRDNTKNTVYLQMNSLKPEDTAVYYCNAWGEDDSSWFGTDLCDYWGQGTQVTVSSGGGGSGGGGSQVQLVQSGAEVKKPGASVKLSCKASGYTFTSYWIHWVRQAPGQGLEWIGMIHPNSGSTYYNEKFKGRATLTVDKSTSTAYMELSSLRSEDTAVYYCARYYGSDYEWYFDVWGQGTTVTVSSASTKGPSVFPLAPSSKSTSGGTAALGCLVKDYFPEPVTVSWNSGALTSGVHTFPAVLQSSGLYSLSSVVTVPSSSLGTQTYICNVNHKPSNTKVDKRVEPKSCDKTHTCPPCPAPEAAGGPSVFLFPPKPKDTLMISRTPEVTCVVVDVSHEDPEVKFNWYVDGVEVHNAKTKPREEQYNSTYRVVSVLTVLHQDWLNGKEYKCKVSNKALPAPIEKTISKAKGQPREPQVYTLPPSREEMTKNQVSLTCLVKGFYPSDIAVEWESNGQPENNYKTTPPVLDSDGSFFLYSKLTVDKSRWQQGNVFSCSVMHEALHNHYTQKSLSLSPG
light: DIQMTQSPSSMSASVGDRVTITCKASQNVRTAVVWYQQKPGKAPKALIYLASNRHTGVPDRFSGSGSGTDFTLTISSLQPEDFATYFCLQHWNYPYTFGQGTKLEIKRTVAAPSVFIFPPSDEQLKSGTASVVCLLNNFYPREAKVQWKVDNALQSGNSQESVTEQDSKDSTYSLSSTLTLSKADYEKHKVYACEVTHQGLSSPVTKSFNRGEC
In the experiment with Cynomolgus CD39 antigen, B1 displayed a Kd of 2.61 nM, a koff of 0.00161 s⁻¹ and a kon of 618000 M⁻¹ s⁻¹. In the experiment with Human CD39 antigen, this molecule gave a Kd of 0.0708 nM, an off-rate (koff) of 9.28e-05 s⁻¹ and a kon of 1.31e+06 M⁻¹ s⁻¹. In the experiment with Human CD73 antigen, this molecule yielded a Kd of 0.341 nM, an off-rate constant (koff) of 0.000319 s⁻¹ and a kon of 935000 M⁻¹ s⁻¹. Moreover, in experiment [1], the “EC50 (µg/mL), inhibition of CD39 ATPase activity on CHOK1-huCD39-10B6 cells (CellTiter Glo)” value came to 0.208 µg/mL.

B2: CD39/CD73 bispecific antibody 700038 (CD39-VHH-CD73-IgG) (bispecific antibody)
heavy: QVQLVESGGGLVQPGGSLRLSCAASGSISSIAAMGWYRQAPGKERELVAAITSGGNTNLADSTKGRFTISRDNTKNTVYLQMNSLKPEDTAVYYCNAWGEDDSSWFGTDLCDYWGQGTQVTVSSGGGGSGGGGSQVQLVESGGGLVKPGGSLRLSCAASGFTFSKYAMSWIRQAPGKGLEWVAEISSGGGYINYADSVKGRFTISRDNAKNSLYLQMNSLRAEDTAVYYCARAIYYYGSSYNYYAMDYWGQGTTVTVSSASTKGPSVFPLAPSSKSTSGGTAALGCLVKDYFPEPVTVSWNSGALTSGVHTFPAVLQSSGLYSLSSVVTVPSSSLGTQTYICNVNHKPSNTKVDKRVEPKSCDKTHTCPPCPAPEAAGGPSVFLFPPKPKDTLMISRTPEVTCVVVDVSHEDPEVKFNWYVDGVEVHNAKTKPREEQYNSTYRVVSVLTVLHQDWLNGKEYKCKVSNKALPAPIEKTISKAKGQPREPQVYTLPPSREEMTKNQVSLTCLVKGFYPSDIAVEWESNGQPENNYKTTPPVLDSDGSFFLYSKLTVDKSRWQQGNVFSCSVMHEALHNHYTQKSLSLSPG
light: DIQMTQSPSSLSASVGDRVTITCRASQDVGTAEAWYQQKPGKAPKLLIYWASTRHTGVPSRFSGSGSGTDFTLTISSLQPEDFATYYCQQYSSYPLTFGQGTKLEIKRTVAAPSVFIFPPSDEQLKSGTASVVCLLNNFYPREAKVQWKVDNALQSGNSQESVTEQDSKDSTYSLSSTLTLSKADYEKHKVYACEVTHQGLSSPVTKSFNRGEC
B2: in the experiment with Cynomolgus CD39 antigen, binding was characterised by a dissociation constant (Kd) of 2.69 nM, the koff is 0.00163 s⁻¹ and the kon was found to be 606000 M⁻¹ s⁻¹. Further, in the experiment with Human CD39 antigen, binding was put at a Kd of 0.0918 nM, the dissociation rate constant (koff) was 9.54e-05 s⁻¹ and the kon worked out at 1.04e+06 M⁻¹ s⁻¹. Further, in the experiment with Human CD73 antigen, the dissociation constant Kd was 0.425 nM, the koff was determined as 0.000249 s⁻¹ and the kon stood at 587000 M⁻¹ s⁻¹. In addition, the “EC50 (µg/mL), inhibition of CD39 ATPase activity on CHOK1-huCD39-10B6 cells (CellTiter Glo)” value in experiment [1] was 0.187 µg/mL.
